In patent US11433099B2, “Immunotherapy with B*08 restricted peptides and combination of peptides against cancers and related methods” (Immatics Biotechnologies GmbH, priority 2018, dated 2022):

Assays:
[1] = test system: CD8+ T cells of healthy HLA-B*08 donors; assay: In vitro T-cell priming assay with aAPCs loaded with peptide/MHC complexes and anti-CD28 antibody, pMHC multimer readout; format: cell-based, human; conditions: in vitro immunogenicity, HLA class I peptides, Table 10B
Source text: In order to obtain information regarding the immunogenicity of the TUMAPs of the present invention, the inventors performed investigations using an in vitro T-cell priming assay based on repeated stimulations of CD8+ T cells with artificial antigen presenting cells (aAPCs) loaded with peptide/MHC complexes and anti-CD28 antibody.
In order to perform in vitro stimulations by artificial antigen presenting cells loaded with peptide-MHC complex (pMHC) and anti-CD28 antibody, the inventors first isolated CD8+ T cells from fresh HLA-B*08 leukapheresis products via positive selection using CD8 microbeads (Miltenyi Biotec, Bergisch-Gladbach, Germany) of healthy donors obtained from the University clinics Mannheim, Germany, after informed consent.
PBMCs and isolated CD8+ lymphocytes were incubated in T-cell medium (TCM) until use consisting of RPMI-Glutamax (Invitrogen, Karlsruhe, Germany) supplemented with 10% heat inactivated human AB serum (PAN-Biotech, Aidenbach, Germany), 100 U/ml Penicillin/100 μg/ml Streptomycin (Cambrex, Cologne, Germany), 1 mM sodium pyruvate (CC Pro, Oberdorla, Germany), 20 μg/ml Gentamycin (Cambrex). 2.5 ng/ml IL-7 (PromoCell, Heidelberg, Germany) and 10 U/ml IL-2 (Novartis Pharma, Nornberg, Germany) were also added to the TCM at this step.
Generation of pMHC/anti-CD28 coated beads, T-cell stimulations and readout was performed in a highly defined in vitro system using four different pMHC molecules per stimulation condition and 8 different pMHC molecules per readout condition.
The purified co-stimulatory mouse IgG2a anti human CD28 Ab 9.3 (Jung et al., 1987) was chemically biotinylated using Sulfo-N-hydroxysuccinimidobiotin as recommended by the manufacturer (Perbio, Bonn, Germany). Beads used were 5.6 μm diameter streptavidin coated polystyrene particles (Bangs Laboratories, Illinois, USA).
800.000 beads/200 μl were coated in 96-well plates in the presence of 4×12.5 ng different biotin-pMHC, washed and 600 ng biotin anti-CD28 were added subsequently in a volume of 200 μl. Stimulations were initiated in 96-well plates by co-incubating 1×10^6 CD8+ T cells with 2×10^5 washed coated beads in 200 μl TCM supplemented with 5 ng/ml IL-12 (PromoCell) for 3 days at 37° C. Half of the medium was then exchanged by fresh TCM supplemented with 80 U/ml IL-2 and incubating was continued for 4 days at 37° C. This stimulation cycle was performed for a total of three times. For the pMHC multimer readout using 8 different pMHC molecules per condition, a two-dimensional combinatorial coding approach was used as previously described (Andersen et al., 2012) with minor modifications encompassing coupling to 5 different fluorochromes. Finally, multimeric analyses were performed by staining the cells with Live/dead near IR dye (Invitrogen, Karlsruhe, Germany), CD8-FITC antibody clone SK1 (BD, Heidelberg, Germany) and fluorescent pMHC multimers. For analysis, a BD LSRII SORP cytometer equipped with appropriate lasers and filters was used. Peptide specific cells were calculated as percentage of total CD8+ cells. Evaluation of multimeric analysis was done using the FlowJo software (Tree Star, Oregon, USA). In vitro priming of specific multimer+CD8+ lymphocytes was detected by comparing to negative control stimulations.

HLA-B*08:01 = HLA-B*08:01 (Homo sapiens, UniProt P01889); assay: MHC binding assay (UV-ligand exchange, beta2m ELISA); conditions: MHC class I binding score; binding to HLA-B*08:01 ranged by peptide exchange yield (UV-ligand exchange, β2m ELISA)
In short: (§1)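 Peptide–HLA complexes generated by UV-ligand exchange of a UV-cleavable peptide for the test peptide; exchange yield read by β2m ELISA on streptavidin capture (samples diluted 100-fold, 1 h 37 °C), HRP anti-β2m, TMB, A450. Quantified against refolded HLA-A*02:01/MLA-001 monomer standards (15-500 ng/ml).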

HLA-B*44:05 = HLA-B*44:05 (Homo sapiens, UniProt P01889, A223V/A65T/A93T/A95T/D201E/D98Y/E176V/E187L/E204Q/E69K/G107R/H137Y/K202T/L105A/L119I/N104T/N87E/Q56L/Q94N/R106L/R155S/R180D/S101N/S121R/S35A/S48T/T118I/V36M/W191S/Y91S); assay: as above; conditions: Table 11B, peptide exchange yield
In short: as §1

HLA-A*02:01 = HLA-A*02:01 (Homo sapiens, UniProt P04439, D140Y/D185E/D98H/E176V/E277Q/G131W/G231S/I119V/I121R/I166T/I218V/L300P/L318F/N151K/N90K/P208A/P217A/Q86G/Q94H/R138H/R169H/T345S); assay: as above; conditions: Table 11C, peptide exchange yield
In short: as §1

Substance	Wells positive [%] [1]	Peptide exchange (HLA-B*08:01)	Peptide exchange (HLA-B*44:05)	Peptide exchange (HLA-A*02:01)
83 (FVLLRSVDL; listed as Homo sapiens) [compound 83]	+++ (50%-69%= +++)	+++ (50% = +++)		
86 (RPIHHPLVL; listed as Homo sapiens) [compound 86]	+ (<20% = +)	++ (20% = ++)		
89 (VPYTKVQL; listed as Homo sapiens) [compound 89]	+ (<20% = +)	+++ (50% = +++)		
290 (EEFLTPKKL; listed as Homo sapiens) [compound 290]			+++ (≥50% = +++)	
291 (YVYANHFTEA; listed as Homo sapiens) [compound 291]				++++ (≥75% = ++++)
